In the nanobody polyreactivity screen of Harvey et al. (2022):

Experiment: yeast display, Sf9 membrane polyspecificity reagent, FACS + sequencing; frameworks hold sequencing errors
Method in brief: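 Sorting gates, low and high (top ~1%), were placed on anti-HA fluorescence to track expression and on streptavidin fluorescence to track reagent binding. A clone's polyreactivity label is taken from the gate it came out of. The reagent was 10% biotinylated, detergent-solubilized Sf9 membrane, applied for 1 hour at 4 °C to galactose-induced yeast display cells.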

Sequence	polyreactivity (PSR sort gate)
QVQLVESVGGLVQAGGSLRLSCAASGSIFGYYAMGWYRQAPGKDRELVAGINWSGGSTYADSVKGRFTISRDNAKNTVYIQMNSLKPEDTAVYYCNRRYRKDSSAKYDYWGQGTQVTVSS	high polyreactivity
QVQLVESGGGLVQAGGSLRLSCAASGFTFIRYAMGWYRQAPGKERELVASISNRGGRTYYADSVKGRFTISRDNAKNTVYLQMNSLKPEDTAVYYCAAGYSTYRAVWTDNNYWGQGTQVTVSS	high polyreactivity
QVQLVESGGGLVQAGGSLRLSCAASGIILYRNGMGWYRQAPGKERELVAASSWSTGSTYYADSVKGRFTISRDNAKNTVYLQMNSLKPEDTAVYYCATDYVGYSFGMYYWGQGTQVTVSS	low polyreactivity
QVQLVESGGGLVQAGGSLRLSCAASGSIFPRNAMGWYRQAPGKERELVAAITTTGGITHYADSVKGRFTISRDNAKNTVYLLMNSLKPEDTAVYYCNASYEYNAGRVETEYDYWGQGTKVTVSS	low polyreactivity
QVQLVESGGGLVQAGGSLRLSCAASGRIFYPYAMGWYRQAPGKERELVAAISFRDGSTYYADSVKGRFTISRDNAKYTVYLQLNILKPEDTAVYYCAAVGQTHPTSPLYTKYDYWGQGTQVTVSS	low polyreactivity
QVQLVESGGGLVQAGGSLRLSCAASGLIFSRYAMGWYRQAPGKERELVAVISWSGGRTYYADSVKGRFTISRDNAKNTVYLQMNSLKPEDTAVYYCAARSYGGQGVRMDYWGQGTQVTVSS	high polyreactivity
QVQLVESGGGLVQAGGSLRLSCAASGRTFGLYAMGWYRQAPGKERELVAAISWGGGRTYYADSVKGRFTISRDNAKNTVYLQMNSLKPEDNAVYYCNAVYSPRYYVGGYDYWGQGTQVTVSS	high polyreactivity
QVQLVESGGGLVQAGGSLRLSCAASGRTLRQYAMGRYRQAPGKERELVAAISRGGSTTYADSVKGRFTISRDNAKNTVYLQMNSLKPEDTAVYYCNAELNWYYYIHLDYWGQGTQVTVSS	low polyreactivity
QVQLVESGGGLVQAGGSLRLSSAASGITIRYNDMGWYRQAPGKERELVAAITFSGGSTYYPDSVKGRFTISRDNAMNTVYLQMNSLKPEDTAVYYCAKLGSTSSRGNYDYWGQGTQVTVSS	low polyreactivity
QFQLVESGGGLVQAGGSLRLSCAASGFTLRTYAMGWYRQAPGKERELVAAITVSGGTYYADSVKGRFTISRDNAKYTVYLQMNSLKPEDTAVYYCTAKRFGTGFDYWGQGTQVTVSS	low polyreactivity
QVQLVESGGGLVQAGGSLRLSCAASGGIFSVYAMGLYRQAPGKERELVASITVSGGSTSYADSVKGRFTISRDNAKNTVYLQMNSLKPEDTAVYYCNTDFGQAHTLSWYEDMDYWGQGTQVTVSS	low polyreactivity
QVQLVESGGGLVQAGGSLRLSCAASGSTFARNAMGWYRQAPGKERELVAAITYSGGRTYYADSVKGRFTISRDNAKNTVYLQMNSLKPEDTAVYYCAADIVSSTDYPFDYWGQGTQVTVSS	low polyreactivity
QVQLEESGGGLVQAGGSLRLSCAASGYIFSQYAMGWYRPAPGKERELVASISGSGSSTYYADSVKGRFTISRDNAKNTVYLQMNSLKPADTAVFYCAAEWTWGWYITFDYWGQGTQVTVSS	high polyreactivity
QVQLVESGGGLVQAGGSLRLSCAASGFTFPSYDMGWYRQAPGKERELVAAISWSGTSTYYADSVKGRFTISRDNAKNTVYLQMNSLKPEDTAVYYCNAQYSYLWGEYGYWGQGTQVTVSS	high polyreactivity
QVQLVESGGGLVQAGGSLRLSCAASGFTFVPNTMGWYRQAPGKERELVARIRWRGGSTYYADSVKGRFTISRDNAKNTVYLQMNSLKPEDTAVYYCNAVRGYDARPYSEVYHGEKYYYWGQGTQVTVSS	low polyreactivity
QVQLVESGGGLVQAGGSLRLSCAASGRIFYSYAMGWYRQAPGKERELVAAIDESDGSTYYADSVKGRFTISRDNAKNTVYLQMNSLKPEDTAVYYCAADSLLVLFDYWGQGTQVTVSS	low polyreactivity
QVQLVESGGGLVQAGGSLRLSCAASGRIFTKNTMGWYRQAPAQERELVAAIRSRAGSTYYADSVKGRFTISRDNEKNTVYLQMNSLKPEDTAVYYCAVRWFRSVDFDYWGQGTQVTVSS	low polyreactivity
QVQLVESGGGLVQAGGSLRLSCAASGSISVNAMVWDRQAPGKERELVAVINRSGGNTYYADSVKGRFTISRDNAKNTVYLQMNSLKPEDTAVYYCAAKWTRSYSRYDYWGQVTQVTVSS	high polyreactivity
QVQLVESGGGLVQAGGSLRLTCAASGFIFPRYAMGWYRQAPGKERELVAAISYSGGSTYYADSVKGRFTISRDNAKNTVYLQMNSLKPEDTAVYYCNKDFPPQGQLRNMYYWGQGTQVTVSS	high polyreactivity
QVQLVESGGGLVQAGGSLRLSCAASGFIIKWYAMGWYRQAPGKERELLAAISIDGGSTYYADSVKGRFTISRDNAKNTVYLQMNSLLPEDTAVYYCNAGYNGTQYLTRDYGLGMDYWGLGTQVTVSS	low polyreactivity
QVQLVESGGGLVQAGGSLRLSCAASGSIFPDNTMGWYRQAPGKERELVAAIDGRGGTTYYADSVKGRFTISRDNAKNTVYLQMNSLKPEDTAVYYCNAGVWTYWHIEMDYWGQGTQVTVSS	low polyreactivity
QVHLVESGGGLVQAGGSLRLSCAASGFTITYNAMGWYRQAPGKEREFVAAITNNGSTYYADSVKGRFTISRDNAKNSVYLQMKSLKPEDTAVYYCAVDRGYYDEYNYWGQGTHVTVSS	low polyreactivity

Sequence	polyreactivity (PSR sort gate)
QVQLVESGGGLVQEGGSLRLSCAACGRTFSWYAMGWYRQAPGKDRELVAAITSGGSTYYADSVKGRFTISRDNAMNTVYLQMNSLKPEDTAVYYCAAQAYVEGVYRYDYWGQGTQVTVSS	low polyreactivity
QVQLVESGGGLVQAGGSLRLSCAASGRIFRINAMGWYRPAPGKERELVAAITRGGSTNYADSVKGRFTISRDNAKNTVYLQMNSLKPEDTAVYYCAADVSTYYYPGWFKLYLFDYWGQGTQVTVSS	high polyreactivity
QVQLVESGGGLVQAGGSLRLTCAASGYTFRRYAMGWYRQAPGKERELVAAITRDDSTNYADSVKGRFTISRDNGKNTVYLQMNSLKPEDTAVYYCAAAVGLRRYSPLHLLYYYWGQGTQVTVSS	high polyreactivity
QVQLVESGGGLVQAGGSLRLSCAASGLNFYWYAMGWYRQAPGKERELFAAINWSGGRTHYADSVKGRFTMSRDNANNTVYFQMNCLKPEDTAVYYCAASPYWFTRYYPKTRETMDYWGQGTQVTVST	high polyreactivity
QVQLVESGGGLVQAGGSLRLSCAASGFIFYRNALGWYRQAPGKERELVAVIRWSGTSTSYADSVKGRFTISRDNAKNTVYLQMNSLKPEDTAVYYCNAAWYDLYGDSDGDDYWGQGTQVTVSS	low polyreactivity
QVQLVESGGGLVQAGGSVRLSCAASGLTFQRYAMGGYRQAPGKERELVASITGNGGSTYYADSVKGRFSISRDNAKNTVYLQMNSLKPEDTAVYYCNARRYVRTCQQPLYDYWGQGTQVTVSS	high polyreactivity
QVQLVESGGGLVQAGGSLRLSCAASGRIFNTYAMGWFRQAPGKERELVAAITRSAGRTYYADSVKGRFTISRDTAKNTVYLQMNSLKPEDTAVYYCAAQYNYGQRSGPYGYWGQGTQVTVSS	low polyreactivity
QVQLVESGGGLVQAGGSLRLSCAASGRTFRTYTMGWYRQAPGKEREFGAAITSSGASTYYADSVKGRFTISRDNAKNTVYLPMNSLKPEETAVYYCAARYGRRLVWVPALLYDYWGQGTQVTVSS	high polyreactivity
QVQLVESAGGLVQAGGSLRLSCAASGFIFGKNAMGLYRQAPGKERELVAVITRSGSRTYYADSVKGRLTISRDNAKNTVYLQMNSLKPEDTAVYYCATDNVYAYDYWGLGTQVTVSS	high polyreactivity
QVQLVESGGGLVQAGGSLRLSCAASGSIFGLYTMGWYRQAPGKERELVAAIDSGDSTNYADSVKGRFTISRDNEKNTVYLQMNSLKQEDTAVYYCNALGEYPYYSSFWYESWGQGTQVTVSS	low polyreactivity
QVQRVESGGGLVQAGGSLRLSCAASGSTFNRNALGWYRPEPGKERELVAAISWRGDSTSYADSVKGRFTITRDNAKNTVYLQMNSLKPEDTAVYNCASAHAYAFYRYWYVPSEYNYWGQGTQVTVSS	low polyreactivity
QVQLVESGGGLVQAGGSLRLSCAASGSTFPSYVMGWYRQAPGKEREMVAAISSSGGRTYYADSVKGRFTISRDNAKNTVYLQMNSLKPEDTAVYYCAAKRGPLVNDHQFWGQGTQVTVSS	high polyreactivity
QVQLVESAGGLVQAGGSLRLSCAASASTFTNYVMGWYRQAPGKERELVAAITKSGGSTYYADSVKGRYTISRDNAKNTVYLQMNRLKPEDTAVYYCAARRTTEFGYWGQGTQVTVSS	high polyreactivity
QVQLVESGGGLVQAGGSLRLSCAASGLILPYYAMGWYRQAPGTERELVAAISRTAGRTSYADSVKGRFTISRDNAKNTVYLQMNSLKPEDTAVYYCAAVGQSGGRRYDYWGQGTQVTVSS	high polyreactivity
QVQLVESGGGLDQAGGSLRLSSAASGSIVDSNAMGWYRQAPGKASEMVASITSSGGSTYYADSVKGRFTISRDNAKNTVYLQMNSVKPEDTAVYYCAPKQAQSRYRLWSTSGYWGQGTQVTVSS	high polyreactivity
QVQLVESGGGLVQAGGSLRLSCAASGRIFSQNAMGWYRQAPGKEREVVAVISRGGSTNYADSVKGRFTISRDNAKNTVYLQMNSLKPEDTAVYYCAADYAYIRSVWKWFIGDYWGQGTQVTVSS	low polyreactivity
QVQLVESGGGLVQAGGSLRLSCAASGFTFWRYAMGWYRQAPGKERELVAAISWRGSSTYYADSVKGRFTISRDNAKNTVYLQMNSLKPEDSAVYYCAARYITFNGYGYGYWGQGTQVTVSS	high polyreactivity
QVQLVESGGGLVQAGGSLRLSCAASGVTFSLNTMGWYRQSPGKERELVAAINSGDSTYADSVKGRFTISRDNAKNTVYVQMNSLKPEDTAVYYCTADPDWWYPYNYWGQGTQVTVSS	low polyreactivity
QVQLVESGGGLVQAGGSLRLSCAASGSTFNRYAMGWYIQAPGKERELVAAITRSGTSTYYADSVKGRFTISRDNAKNTVYLQMNSLKPEDTAVYYCAAVRYAVHFSYDYWGQGTQVTVSS	high polyreactivity
QVQLVESGGGLVQAGGSLRLSCAASGSTFARNAMGWYRQAPGKERDLVAAITWSGGNTYYADSVKGRFTISRDNAKNTVYLQMNSLKPEDSAVYYCNKATRHHFYYWGQGTQVTVSS	high polyreactivity
QVQLVESGGGLVQAGGSLRLSCAASGFIFAVYAMGWYRQAPGKERELVARISSGRGSTYYADSVKGRFTISRDNAKNTVYFQMNSLKPEDTAVYYCAADPVHRFPGTGGYWGQGTQVTVSS	low polyreactivity
